According to patent US20160017031A1:

Assays:
[1] = target: HLA-A2 (HLA-A*0201) class I molecule without a defined test peptide (human); assay: cell-based or functional assay
[2] = target: GVL peptide-HLA-A2 (hCG beta 47-55 peptide … in HLA-A2 with beta-2 microglobulin) (human); assay: flow cytometry, T2 cells pulsed with 50 to 0.1 µg/ml GVL peptide
[3] = target: TMT peptide-HLA-A2 (hCG beta 40-48 peptide … in HLA-A2 with beta-2 microglobulin) (human); assay: cell-based or functional assay
[4] = target: GVL peptide-HLA-A2 (hCG beta 47-55 peptide … in HLA-A2 with beta-2 microglobulin) (human); assay: cell-based or functional assay
[5] = target: HLA-A2 (HLA-A*0201) class I molecule without a defined test peptide (human); assay: flow cytometry, unpulsed T2 cells, 1 µg per stain
[6] = target: GVL peptide-HLA-A2 (hCG beta 47-55 peptide … in HLA-A2 with beta-2 microglobulin) (human); assay: flow cytometry, GVL-pulsed T2 cells, 1 µg antibody
[7] = target: GVL peptide-HLA-A2 (hCG beta 47-55 peptide … in HLA-A2 with beta-2 microglobulin) (human); assay: flow cytometry, GVL-pulsed T2 cells, 1 µg per stain
[8] = target: TMT peptide-HLA-A2 (hCG beta 40-48 peptide … in HLA-A2 with beta-2 microglobulin) (human); assay: flow cytometry, TMT-pulsed T2 cells, 1 µg per stain
[9] = target: VLQ peptide-HLA-A2 (hCG beta peptide … in HLA-A2 with beta-2 microglobulin) (human); assay: flow cytometry, VLQ-pulsed T2 cells, 1 µg per stain
[10] = target: GVL peptide-HLA-A2 (hCG beta 47-55 peptide … in HLA-A2 with beta-2 microglobulin) (human); assay: flow cytometry, GVL-pulsed T2 cells, 0.01 µg antibody

Row | Substance | CDC specific lysis of GVL-pulsed T2 cells [1] [%] | MFI [2] [MFI] | complement-dependent cytolysis (CDC) of TMT-pulsed T2 cells [3] [%] | ADCC of MDA-231 cells, human PBMC, E:T 20:1 [4] [%] | ADCC of MDA-MB-231 cells, human PBMC, E:T 30:1, 10 µg/ml 3.2G1 [4] [%] | ADCC of MDA-MB-231 cells, human PBMC, E:T 30:1, 10 µg/ml 3.2G1 (average) [4] [%] | CDC specific lysis of T2 cells pulsed with 50 to 0.1 µg/ml GVL peptide [4] [%] | GVL peptide concentration giving half-maximal CDC lysis [4] [µg/mL] | MFI [5] [MFI] | MFI [6] [MFI] | MFI [7] [MFI] | MFI [8] [MFI] | MFI [9] [MFI] | MFI [10] [MFI]
1 | BB7.2 monoclonal antibody (anti-HLA-A2) | 53 to 70 | 250 to 350 |  |  |  |  |  |  |  |  |  |  |  | 
2 | RL4B (antibody) |  | 10 to 150 | 2 | 6.4 to 13.4 | 6.8 to 9.6 | 8.7 | 6 to 73 | 6 | 9 | 388 | 141 | 7.5 | 7.3 | 14.3
